Source: US20220119534A1 (DRAGONFLY THERAPEUTICS, published 2022)
Where a chain is given by its changes, count along the chain named. Blank lines part the entries; values can stand above or below the binder they belong to.

Assays:
[1] = target: T1, human CLEC12A expressed on cells (human, UniProt Q5QGZ9 1-265); experiment: flow cytometry on CLEC12A+ PL-21 AML cells
T1 construct: Transduced isogenic cells or endogenous expression on AML cells; also called RMA-hCLEC12A; Ba/F3-hCLEC12A
T1 sequence: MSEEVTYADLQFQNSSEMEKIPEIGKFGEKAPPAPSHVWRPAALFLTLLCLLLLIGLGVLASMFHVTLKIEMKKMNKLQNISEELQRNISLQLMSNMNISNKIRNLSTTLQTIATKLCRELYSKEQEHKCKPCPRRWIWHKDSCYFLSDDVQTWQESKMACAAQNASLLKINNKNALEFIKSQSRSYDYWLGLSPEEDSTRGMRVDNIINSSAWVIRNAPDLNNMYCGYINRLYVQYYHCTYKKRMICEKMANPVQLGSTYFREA

[2] = target: T2, recombinant human CLEC12A-His (human, UniProt Q5QGZ9 65-265); experiment: SPR, CLEC12A binding
T2 construct: also called hCLEC12A-His; hCLEC12A
T2 sequence: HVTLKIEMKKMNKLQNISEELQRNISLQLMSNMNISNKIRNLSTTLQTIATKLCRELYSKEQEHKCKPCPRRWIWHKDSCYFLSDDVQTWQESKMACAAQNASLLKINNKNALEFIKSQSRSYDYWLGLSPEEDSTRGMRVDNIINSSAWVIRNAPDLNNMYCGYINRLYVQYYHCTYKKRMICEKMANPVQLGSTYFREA

recombinant human CD16b = target: T3, recombinant human CD16b (human, UniProt O75015 17-200, limits assumed, biotinylated); experiment: SPR
T3 construct: also called FcγRIIIb

[3] = target: T4, recombinant human CD16a V158 (human, UniProt P08637 17-208, biotinylated); experiment: SPR
T4 construct: also called FcγRIIIa V158; hCD16aV

[4] = target: T1, human CLEC12A expressed on cells; experiment: flow cytometry on PL-21 cells, fold over background
Protocol: (§1) The cells were then incubated with a fluorophore conjugated anti-human IgG secondary antibody and were analyzed by flow cytometry. The mean fluorescence intensity (MFI) values were normalized to secondary antibody only controls to obtain fold over background (FOB) values.
100,000 cells were seeded per well into a 96-well plate for FACS staining. Cells were washed with PBS. Cells were incubated in a 1:2000 dilution of live/dead dye in PBS for 15 minutes, then washed with FACS buffer. TriNKETs or mAbs were diluted into FACS buffer, and 50 μl containing diluted TriNKET or mAb was added to cells. Cells were incubated on ice for 20 minutes. After the incubation, cells were washed with FACS buffer. Anti-human IgG-Fc secondary antibody was diluted into FACS buffer, and 50 μl was added per well for detection of the bound TriNKETs or mAbs. Cells were incubated for 20 minutes on ice, then washed with FACS buffer. 50 μl of fixation buffer was added to each well, and cells were incubated for 10 minutes at room temperature. […] Within the live gate, the mean fluorescence intensity (MFI) of each sample and the secondary-only control was calculated. Fold-over-background (FOB) was calculated as the ratio of test article MFI over secondary-only background MFI. […]

[5] = target: T5, recombinant cynomolgus CLEC12A-His (cynomolgus monkey, UniProt A0A2K5WXQ4 71-271); experiment: SPR 37C
T5 construct: also called cCLEC12A-His; cCLEC12A
T5 sequence: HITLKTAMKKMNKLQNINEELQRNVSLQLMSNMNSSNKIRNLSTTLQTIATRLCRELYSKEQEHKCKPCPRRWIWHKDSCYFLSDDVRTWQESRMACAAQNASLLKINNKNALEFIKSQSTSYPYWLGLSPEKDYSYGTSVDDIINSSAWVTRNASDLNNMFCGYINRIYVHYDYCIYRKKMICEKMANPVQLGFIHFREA

[6] = target: T2, recombinant human CLEC12A-His; experiment: SPR screening, semi-purified
[7] = target: T2, recombinant human CLEC12A-His; experiment: SPR
[8] = target: T1, human CLEC12A expressed on cells; experiment: flow cytometry on HL-60 cells, fold over background
Protocol: as §1
100,000 cells were seeded per well into a 96-well plate for FACS staining. Cells were washed with PBS. Cells were incubated in a 1:2000 dilution of live/dead dye in PBS for 15 minutes, then washed with FACS buffer. TriNKETs or mAbs were diluted into FACS buffer, and 50 μl containing diluted TriNKET or mAb was added to cells. Cells were incubated on ice for 20 minutes. After the incubation, cells were washed with FACS buffer. Anti-human IgG-Fc secondary antibody was diluted into FACS buffer, and 50 μl was added per well for detection of the bound TriNKETs or mAbs. Cells were incubated for 20 minutes on ice, then washed with FACS buffer. 50 μl of fixation buffer was added to each well, and cells were incubated for 10 minutes at room temperature. Cells were washed with FACS buffer and resuspended in FACS buffer for analysis with BD FACS Celesta SN #H66034400085, or BD FACS Celesta SN #H66034400160. Cells of interest were identified using FSC vs. SSC plot, and an appropriately shaped gate was drawn around the cells. Within the gated cells, doublet cells were removed by viewing FSC-H vs FSC-A plot. Within the single cell population, live cells were gated. Within the live gate, the mean fluorescence intensity (MFI) of each sample and the secondary-only control was calculated. Fold-over-background (FOB) was calculated as the ratio of test article MFI over secondary-only background MFI. Data were fit to a four-parameter non-linear regression curve using GraphPad Prism 7.0.

[9] = target: T2, recombinant human CLEC12A-His; experiment: SPR; sensorgrams of a CLEC12A concentration series with fit overlays (response up to about 28, time axis 0 to about 900)
human CLEC12A-K244Q-His = target: T6, human CLEC12A-K244Q-His (human, UniProt Q5QGZ9 65-265); experiment: SPR
T6 construct: Polymorphic variant; also called hCLEC12A-K244Q; CLEC12A (Q244)
T6 chain: T2 sequence with K180Q

[10] = target: T1, human CLEC12A expressed on cells; experiment: flow cytometry, hCLEC12A+ Ba/F3
[11] = target: T1, human CLEC12A expressed on cells; experiment: flow cytometry, HL60
[12] = target: T1, human CLEC12A expressed on cells; experiment: flow cytometry (MFI) on CLEC12A+ PL21 AML cells, about 0.04 to 27 nM, plateau about 1150 MFI; the molecule is assigned by panel order and legend paragraph 296
[13] = target: T2, recombinant human CLEC12A-His; experiment: SPR; remark: listed apart in the source
de-sialylated hCLEC12A = target: T7, de-sialylated hCLEC12A (human, UniProt Q5QGZ9 65-265, terminal sialic acids removed (neuraminidase)); experiment: SPR
T7 construct: also called De-sialylated CLEC12A
T7 sequence: T2 sequence

de-glycosylated hCLEC12A = target: T8, de-glycosylated hCLEC12A (human, UniProt Q5QGZ9 65-265, N-linked glycans removed (PNGase F)); experiment: SPR
T8 construct: also called PNGase-treated hCLEC12A; De-glycosylated CLEC12A
T8 sequence: T2 sequence

[14] = target: T1, human CLEC12A expressed on cells; experiment: flow cytometry, PL21 cells
Protocol: The ability of the eight purified subcloned mAbs to bind to CLEC12A expressing cells was assessed by FACS analysis with human CLEC12A-positive PL21 cancer cell line.

[15] = target: T5, recombinant cynomolgus CLEC12A-His; experiment: SPR, purified murine subclone mAb and Cyno CLEC12A-His
[16] = target: T2, recombinant human CLEC12A-His; experiment: SPR, purified murine mAb
[17] = target: T1, human CLEC12A expressed on cells; experiment: flow cytometry (gMFI) on CLEC12A+ PL-21 AML cells
[18] = target: T2, recombinant human CLEC12A-His; experiment: SPR screening, fully purified mAb
[19] = target: T9, cynomolgus CLEC12A expressed on RMA cells (cynomolgus monkey, UniProt A0A2K5WXQ4 7-271); experiment: flow cytometry, RMA-cCLEC12A, hybridoma supernatant
T9 construct: whole, on cells; also called cCLEC12A isogenic cell line
T9 sequence: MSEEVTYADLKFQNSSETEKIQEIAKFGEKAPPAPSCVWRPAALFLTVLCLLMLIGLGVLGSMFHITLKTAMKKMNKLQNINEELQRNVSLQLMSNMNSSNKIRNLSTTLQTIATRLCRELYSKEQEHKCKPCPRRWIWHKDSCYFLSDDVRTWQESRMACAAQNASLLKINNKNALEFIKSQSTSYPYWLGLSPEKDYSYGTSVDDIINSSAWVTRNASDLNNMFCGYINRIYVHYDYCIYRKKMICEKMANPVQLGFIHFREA
Protocol: Briefly, RMA cells were transducted with a retroviral vector encoding cCLEC12A or hCLEC12A. […] 100,000 RMA, REH or SEM cells were added per well of a 96 well round bottom plate. Cells were spun down and the pellet was gently dissociated by vortexing. 100 μL of Zombie live/dead dye (PBS+1:2000 dye) were added per well and incubated in the dark at room temperature for 20 minutes. Cells were washed with 200 μL of FACS buffer (PBS+2% FBS). 50 μL of hybridoma supernatants were added to the washed cells and the mixtures were incubated for 30 minutes on ice in the dark. Cells were washed twice with FACS buffer and then 50 μL of anti-mouse Fc-PE secondary reagent (1:200 dilution) were added and incubated for 20 minutes on ice in the dark. After the incubation, the cells were washed and then fixed with 50 μL of 4% paraformaldehyde for 15 minutes on ice. The fixed cells were washed with FACS buffer, resuspended in 200 μL FACS buffer, and stored at 4° C. until ready for acquisition. The samples of cells resuspended in FACS buffer were run on BD FACSCelesta equipped with an HTS (high throughput sampler) to determine the binding affinities of the antibodies to isogenic RMA cells expressing CLEC12A and the U937 AML cancer cell line.

[20] = target: T2, recombinant human CLEC12A-His; experiment: SPR, CLEC12A binding; remark: listed apart in the source

T4 sequence (P08637 17-208 F176V limits assumed): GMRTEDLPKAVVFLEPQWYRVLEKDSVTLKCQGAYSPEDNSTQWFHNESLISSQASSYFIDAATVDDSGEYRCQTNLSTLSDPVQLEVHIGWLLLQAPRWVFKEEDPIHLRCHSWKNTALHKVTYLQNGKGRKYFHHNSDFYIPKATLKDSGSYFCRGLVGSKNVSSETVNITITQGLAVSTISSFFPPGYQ
T3 sequence (O75015 17-200 limits assumed): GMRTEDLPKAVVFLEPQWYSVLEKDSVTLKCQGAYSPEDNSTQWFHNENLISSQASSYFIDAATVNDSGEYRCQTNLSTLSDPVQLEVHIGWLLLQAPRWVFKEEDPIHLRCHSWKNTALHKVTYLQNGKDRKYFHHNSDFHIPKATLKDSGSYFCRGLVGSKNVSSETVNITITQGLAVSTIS

- EC50 [1]: 0.45 nM
- Kd [2]: 0.8 nM
- fold difference in affinity vs trastuzumab (recombinant human CD16b): 2.3 fold
- fold difference in affinity vs trastuzumab [3]: 3.8 fold
- EC50 (read off the curve) [4]: ~0.5 nM
- binding result [5]: no binding (tested: 100 nM)
B1: AB0089 TriNKET (other)
chain: QLQLQESGPGLVKPSETLSLTCTVSGFSLTNYGLHWIRQPPGKCLEWIGVIWVGGATDYNPSLKSRVTISVDTSKNQFSLKLSSVQAADTAVYYCAKGDYGDTLDYWGQGTLVTVSSGGGGSGGGGSGGGGSGGGGSDIQMTQSPSSLSASVGDRVTITCHASQNINFWLSWYQQKPGKAPKLLIYEASNLHTGVPSRFSGSGSGTDFTLTISSLQPEDFATYYCQQSHSYPLTFGCGTKLEIKGSDKTHTCPPCPAPELLGGPSVFLFPPKPKDTLMISRTPEVTCVVVDVSHEDPEVKFNWYVDGVEVHNAKTKPREEQYNSTYRVVSVLTVLHQDWLNGKEYKCKVSNKALPAPIEKTISKAKGQPREPRVYTLPPCRDELTKNQVSLTCLVKGFYPSDIAVEWESNGQPENNYKTTPPVLVSDGSFTLYSKLTVDKSRWQQGNVFSCSVMHEALHNHYTQKSLSLSPG
heavy: EVQLVESGGGLVKPGGSLRLSCAASGFTFSSYSMNWVRQAPGKGLEWVSSISSSSSYIYYADSVKGRFTISRDNAKNSLYLQMNSLRAEDTAVYYCARGAPIGAAAGWFDPWGQGTLVTVSSASTKGPSVFPLAPSSKSTSGGTAALGCLVKDYFPEPVTVSWNSGALTSGVHTFPAVLQSSGLYSLSSVVTVPSSSLGTQTYICNVNHKPSNTKVDKKVEPKSCDKTHTCPPCPAPELLGGPSVFLFPPKPKDTLMISRTPEVTCVVVDVSHEDPEVKFNWYVDGVEVHNAKTKPREEQYNSTYRVVSVLTVLHQDWLNGKEYKCKVSNKALPAPIEKTISKAKGQPREPQVCTLPPSRDELTENQVSLTCLVKGFYPSDIAVEWESNGQPENNYKTTPPVLDSDGSFFLYSWLTVDKSRWQQGNVFSCSVMHEALHNHYTQKSLSLSPG
light: DIQMTQSPSSVSASVGDRVTITCRASQGISSWLAWYQQKPGKAPKLLIYAASSLQSGVPSRFSGSGSGTDFTLTISSLQPEDFATYYCQQGVSFPRTFGGGTKVEIKRTVAAPSVFIFPPSDEQLKSGTASVVCLLNNFYPREAKVQWKVDNALQSGNSQESVTEQDSKDSTYSLSSTLTLSKADYEKHKVYACEVTHQGLSSPVTKSFNRGEC

- Kd [6]: 1.26 nM
- koff [6]: 0.00138 s⁻¹
- kon [6]: 1.09e+06 M⁻¹ s⁻¹
- Kd [7]: 1.2 nM
- EC50 (read off the curve) [8]: ~1 nM
- Kd [9]: 1.66 nM
- fold difference in affinity vs CLEC12A WT (human CLEC12A-K244Q-His): ≤ 2.5 fold
- fold difference in affinity vs trastuzumab [3]: ~2 fold
- EC50 [10]: 0.7 nM
- Max binding MFI [10]: 10200 MFI
- EC50 [11]: 0.6 nM
- Max binding MFI [11]: 503 MFI
- EC50 [12]: 0.27 nM
- binding result [5]: no binding (tested: 100 nM)
B2: AB0192 TriNKET (other)
chain: EVQLVESGGGVVQPGGSLRLSCAASGFTFNAFGMHWVRQAPGKCLEWVAFISSGSTSIYYANTVKGRFTISRDNSKNTLYLQMNSLRAEDTAVYYCARDGYPTGGAMDYWGQGTSVTVSSGGGGSGGGGSGGGGSGGGGSDIQMTQSPSSLSASVGDRVTITCKASQDIYNYLSWFQQKPGKAPKPLIYRANILVSGVPSRFSGSGSGQDYTFTISSLQPEDIATYYCLQFDAFPFTFGCGTKLEIKGSDKTHTCPPCPAPELLGGPSVFLFPPKPKDTLMISRTPEVTCVVVDVSHEDPEVKFNWYVDGVEVHNAKTKPREEQYNSTYRVVSVLTVLHQDWLNGKEYKCKVSNKALPAPIEKTISKAKGQPREPRVYTLPPCRDELTKNQVSLTCLVKGFYPSDIAVEWESNGQPENNYKTTPPVLVSDGSFTLYSKLTVDKSRWQQGNVFSCSVMHEALHNHYTQKSLSLSPG
heavy: B1 heavy
light: B1 light
notes: Humanized 9F11.B7 scFv-Fc, A49MI Fab-Fc

- Kd [13]: 0.012 nM
- koff [13]: 4.7e-05 s⁻¹
- kon [13]: 4.05e+06 M⁻¹ s⁻¹
- Kd (de-sialylated hCLEC12A): 0.007 nM
- koff (de-sialylated hCLEC12A): 3.62e-05 s⁻¹
- kon (de-sialylated hCLEC12A): 5.25e+06 M⁻¹ s⁻¹
- Kd (de-glycosylated hCLEC12A): 0.011 nM
- koff (de-glycosylated hCLEC12A): 4.45e-05 s⁻¹
- kon (de-glycosylated hCLEC12A): 4.26e+06 M⁻¹ s⁻¹
- EC50 [14]: 0.18 nM
- Max MFI [14]: 300 MFI
- binding result [15]: no binding
- Kd [16]: 0.01 nM
- koff [16]: 4.44e-05 s⁻¹
- kon [16]: 4.05e+06 M⁻¹ s⁻¹
- EC50 [17]: 0.2 nM
- Kd [18]: 0.008 nM
- koff [18]: 2.35e-05 s⁻¹
- kon [18]: 3.03e+06 M⁻¹ s⁻¹
- binding result [19]: no binding
- Kd [20]: ≤ 0.011 nM
B3: 16B8.C8 (antibody, V domains shown)
VH: EVQLQESGPGLVQPSQSLSITCTVSGFSLTNYGLHWVRQSPGKGLEWLGVIWSGGKTDYNTPFKSRLSISKDISKNQVFFKMNSLQPNDTAIYFCAKYDYDDSLDYWGQGTSVTVSS
VL: DIQMNQSPSSLSASLGDTIAITCHASQNINFWLSWYQQKPGNIPKLLIYEASNLHTGVPSRFSGSGSGTRFTLTISSLQPEDIATYYCQQSHSYPLTFGQGTKLEIK
notes: Murine mAb; also called 16B08; m16B8.C8
